According to patent publication US20200240995:

Columns and labels:
[1] = target: Dual luciferase reporter (DLR) with N(ε)-acetyl-lysine at K529 of the Firefly enzyme
[2] = target: Dual luciferase reporter (DLR) with N(ε)-allyl-oxycarbonyl-lysine at K529 of the Firefly enzyme
[3] = target: Dual luciferase reporter (DLR) with N(ε)-crotonyl-lysine at K529 of the Firefly enzyme
[4] = target: Dual luciferase reporter (DLR) with N(ε)-tert.-butyl-oxycarbonyl-lysine at K529 of the Firefly enzyme
Dual luciferase reporter (DLR) with N(ε)-tert.-butyl-oxycarbonyl-lysine at K529 of the Firefly enzyme, sequence (chain, as listed by the source): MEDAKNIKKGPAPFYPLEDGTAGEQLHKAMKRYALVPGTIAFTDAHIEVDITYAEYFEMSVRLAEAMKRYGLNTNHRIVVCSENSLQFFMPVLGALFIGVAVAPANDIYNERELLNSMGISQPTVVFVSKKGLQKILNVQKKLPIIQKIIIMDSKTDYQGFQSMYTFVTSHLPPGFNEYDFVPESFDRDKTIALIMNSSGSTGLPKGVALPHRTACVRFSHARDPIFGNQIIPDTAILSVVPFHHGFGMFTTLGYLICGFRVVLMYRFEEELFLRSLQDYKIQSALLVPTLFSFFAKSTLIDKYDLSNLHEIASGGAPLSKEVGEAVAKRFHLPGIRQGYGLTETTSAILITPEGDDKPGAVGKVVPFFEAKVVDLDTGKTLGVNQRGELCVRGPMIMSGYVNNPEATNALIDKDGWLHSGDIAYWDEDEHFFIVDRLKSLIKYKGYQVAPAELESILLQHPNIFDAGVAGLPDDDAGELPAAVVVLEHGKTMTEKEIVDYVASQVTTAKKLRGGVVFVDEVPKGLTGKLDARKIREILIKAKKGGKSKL

Dual luciferase reporter (DLR) with N(ε)-allyl-oxycarbonyl-lysine at K529 of the Firefly enzyme, sequence (chain, as listed by the source): as above
Dual luciferase reporter (DLR) with N(ε)-crotonyl-lysine at K529 of the Firefly enzyme, sequence (chain, as listed by the source): as above
Dual luciferase reporter (DLR) with N(ε)-acetyl-lysine at K529 of the Firefly enzyme, sequence (chain, as listed by the source): as above

Protein | DLR activity [rel. to wild-type] (rel. to wild-type) [1] | DLR activity [rel. to wild-type] (rel. to wild-type) [2] | DLR activity [rel. to wild-type] (rel. to wild-type) [3] | DLR activity [rel. to wild-type] (rel. to wild-type) [4]
Dealocase-1 (protein) KPRVLVLTGAGISAESGIRTFRAADGLWEEHRVEDVSTPEGFDRDPELVQAFWNAWRRQLQQPEIQPNAAHLALAKLQDALGDRFLLVTQNVDNLHERAGNTNVIHMHGELLKVRCSQSGQVLDWTGDVTPEDKCHCCQFPAPLRPHVVWFGEMPLGMDEIYMALSMADIFIAIGTSGHVYPAAGFVHEAKLHGAHTVELNLEPSQVGNEFAEKYYGPASQVVPEFVEKLLKGLKAGSIA | 0.49 | 10.8 | 5.73 | 2.88
Decrotonylase-1 (protein) KPRVLVLTGAGISAESGIRTFRAADGLWEEHRVEDVRTPEGFDRDPELVQAFGNATRRQLQQPEIQPNAAHLALAKLQDALGDRFLLVTQNRDNLHERAGNTNVIHMHGELLKVRCSQSGQVLDWTGDVTPEDKCHCCQFPAPLRPHLVWFGEMPLGMDEIYMALSMADIFIAIGTSGHVYPAAGFVHEAKLHGAHTVELNLEPSQVGNEFAEKYYGPASQVVPEFVEKLLKGLKAGSIA | 0 | 0.02 | 0.1 | 0.04
Dealocase-2 (protein) KPRVLVLTGAGISAESGIRTFRAADGLWEEHRVEDVGTPEGFDRDPELVQAFYNAGRRQLQQPEIQPNAAHLALAKLQDALGDRFLLVTQNVDNLHERAGNTNVIHMHGELLKVRCSQSGQVLDWTGDVTPEDKCHCCQFPAPLRPHVVWFGEMPLGMDEIYMALSMADIFIAIGTSGHVYPAAGFVHEAKLHGAHTVELNLEPSQVGNEFAEKYYGPASQVVPEFVEKLLKGLKAGSIA | 1.19 | 10.2 | 2.11 | 0.77
Debocylase-1 (protein) KPRVLVLTGAGISAESGIRTFRAADGLWEEHRVEDVATPEGFDRDPELVQAFYNARRRQLQQPEIQPNAAHLALAKLQDALGDRFLLVTQNVDNLHERAGNTNVIHMHGELLKVRCSQSGQVLDWTGDVTPEDKCHCCQFPAPLRPHLVWFGEMPLGMDEIYMALSMADIFIAIGTSGHVYPAAGFVHEAKLHGAHTVELNLEPSQVGNEFAEKYYGPASQVVPEFVEKLLKGLKAGSIA | 1.25 | 8.35 | 2.9 | 8.65
Dealocase-3 (protein) KPRVLVLTGAGISAESGIRTFRAADGLWEEHRVEDVATPEGFDRDPELVQAFYNARRRQLQQPEIQPNAAHLALAKLQDALGDRFLLVTQNSDNLHERAGNTNVIHMHGELLKVRCSQSGQVLDWTGDVTPEDKCHCCQFPAPLRPHLVWFGEMPLGMDEIYMALSMADIFIAIGTSGHVYPAAGFVHEAKLHGAHTVELNLEPSQVGNEFAEKYYGPASQVVPEFVEKLLKGLKAGSIA | 0.35 | 6 | 1 | 0.65
